{
  "source": "ChEMBL document CHEMBL1255339",
  "about": "“Biochemical characterization of SHV-55, an extended-spectrum class A beta-lactamase from Klebsiella pneumoniae” (Antimicrob Agents Chemother, 2008)",
  "proteins": {"B1": {"name": "Beta-lactamase SHV-1 (Klebsiella pneumoniae), P0AD64 (protein)", "chain": "MRYIRLCIISLLATLPLAVHASPQPLEQIKLSESQLSGRVGMIEMDLASGRTLTAWRADERFPMMSTFKVVLCGAVLARVDAGDEQLERKIHYRQQDLVDYSPVSEKHLADGMTVGELCAAAITMSDNSAANLLLATVGGPAGLTAFLRQIGDNVTRLDRWETELNEALPGDARDTTTPASMAATLRKLLTSQRLSARSQRQLLQWMVDDRVAGPLIRSVLPAGWFIADKTGAGERGARGIVALLGPNNKAERIVVIYLRDTPASMAERNQQIAGIGAALIEHWQR"}, "B2": {"name": "Beta-lactamase SHV-55 (Klebsiella pneumoniae), Q4TVR4 (protein)", "chain": "MRFIRLCIISLLATLPLAVHASPQPLEQIKLSESQLSGRVGMIEMDLASGRTLTAWRADERFPMMSTFKVVLCGAVLARVDAGDEQLERKIHYRQQDLVDYSPVSEKHLADGMTVGELCAAAITMSDNSAANLLLATVGGPAGLTAFLRQIGDNVTRLDRWETELNEALPGDARDTTTPASMAATLRKLLTSQRLSARSQRQLLQWMVDDRVAGPLIRSVLPAGWFIADKTGASKRGARGIVALLGPNNKAERIVVIYLRDTPASMAERNQQIAGIGAALIEHWQR"}},
  "key": {"[1]": {"substrate": "CC1(C)S[C@@H]2[C@H](NC(=O)[C@H](C(=O)O)c3ccsc3)C(=O)N2[C@H]1C(=O)O", "experiment": "(§1) Activity of Klebsiella pneumoniae Beta-Lactamase SHV-1"}, "[2]": {"substrate": "C[C@H]1[C@H](NC(=O)/C(=N\\OC(C)(C)C(=O)O)c2csc(N)n2)C(=O)N1S(=O)(=O)O", "experiment": "as §1"}, "[3]": {"substrate": "CO/N=C(\\C(=O)N[C@@H]1C(=O)N2C(C(=O)O)=C(COC(N)=O)CS[C@H]12)c1ccco1", "experiment": "as §1"}, "[4]": {"substrate": "CO/N=C(\\C(=O)N[C@@H]1C(=O)N2C(C(=O)[O-])=C(C[N+]3(C)CCCC3)CS[C@H]12)c1csc(N)n1", "experiment": "as §1"}, "[5]": {"substrate": "CC1(C)S[C@@H]2[C@H](NC(=O)Cc3ccccc3)C(=O)N2[C@H]1C(=O)O", "experiment": "as §1"}, "[6]": {"substrate": "CC1(C)S[C@@H]2[C@H](NC(=O)[C@H](C(=O)O)c3ccsc3)C(=O)N2[C@H]1C(=O)O", "experiment": "(§2) Activity of Klebsiella pneumoniae Beta-Lactamase SHV-55"}, "[7]": {"substrate": "C[C@H]1[C@H](NC(=O)/C(=N\\OC(C)(C)C(=O)O)c2csc(N)n2)C(=O)N1S(=O)(=O)O", "experiment": "as §2"}, "[8]": {"substrate": "CCN1CCN(C(=O)N[C@@H](C(=O)N[C@@H]2C(=O)N3[C@@H]2SC(C)(C)[C@@H]3C(=O)O)c2ccccc2)C(=O)C1=O", "experiment": "as §2"}, "[9]": {"substrate": "CO/N=C(\\C(=O)N[C@@H]1C(=O)N2C(C(=O)O)=C(COC(N)=O)CS[C@H]12)c1ccco1", "experiment": "as §2"}, "[10]": {"substrate": "CO/N=C(\\C(=O)N[C@@H]1C(=O)N2C(C(=O)[O-])=C(C[N+]3(C)CCCC3)CS[C@H]12)c1csc(N)n1", "experiment": "as §2"}, "[11]": {"substrate": "CC1(C)S[C@@H]2[C@H](NC(=O)Cc3ccccc3)C(=O)N2[C@H]1C(=O)O", "experiment": "as §2"}, "[12]": {"substrate": "CC1(C)S[C@@H]2[C@H](NC(=O)[C@H](C(=O)O)c3ccsc3)C(=O)N2[C@H]1C(=O)O", "experiment": "(§3) Ratio of Kcat to Km for Klebsiella pneumoniae Beta-Lactamase SHV-55"}, "[13]": {"substrate": "CCN1CCN(C(=O)N[C@@H](C(=O)N[C@@H]2C(=O)N3[C@@H]2SC(C)(C)[C@@H]3C(=O)O)c2ccccc2)C(=O)C1=O", "experiment": "as §3"}, "[14]": {"substrate": "CO/N=C(\\C(=O)N[C@@H]1C(=O)N2C(C(=O)O)=C(COC(N)=O)CS[C@H]12)c1ccco1", "experiment": "as §3"}, "[15]": {"substrate": "CO/N=C(\\C(=O)N[C@@H]1C(=O)N2C(C(=O)[O-])=C(C[N+]3(C)CCCC3)CS[C@H]12)c1csc(N)n1", "experiment": "as §3"}, "[16]": {"substrate": "CC1(C)S[C@@H]2[C@H](NC(=O)Cc3ccccc3)C(=O)N2[C@H]1C(=O)O", "experiment": "as §3"}},
  "data": [
    {"protein": "B1", "values": [
      {"measurement": "kcat", "setting": "[1]", "value": 220, "unit": "s⁻¹"},
      {"measurement": "kcat", "setting": "[2]", "value": "< 0.1", "unit": "s⁻¹"},
      {"measurement": "Km", "setting": "[3]", "value": 80, "unit": "µM"},
      {"measurement": "kcat", "setting": "[3]", "value": "< 0.1", "unit": "s⁻¹"},
      {"measurement": "Km", "setting": "[4]", "value": 149, "unit": "µM"},
      {"measurement": "kcat", "setting": "[4]", "value": "< 0.1", "unit": "s⁻¹"},
      {"measurement": "Km", "setting": "[5]", "value": 23, "unit": "µM"}
    ]},
    {"protein": "B2", "values": [
      {"measurement": "Km", "setting": "[6]", "value": 6, "unit": "µM"},
      {"measurement": "kcat", "setting": "[6]", "value": 8, "unit": "s⁻¹"},
      {"measurement": "Km", "setting": "[7]", "value": 5, "unit": "µM"},
      {"measurement": "kcat", "setting": "[7]", "value": "< 0.1", "unit": "s⁻¹"},
      {"measurement": "Km", "setting": "[8]", "value": 8, "unit": "µM"},
      {"measurement": "kcat", "setting": "[8]", "value": 27, "unit": "s⁻¹"},
      {"measurement": "kcat", "setting": "[9]", "value": 7, "unit": "s⁻¹"},
      {"measurement": "Km", "setting": "[10]", "value": 149, "unit": "µM"},
      {"measurement": "kcat", "setting": "[10]", "value": 30, "unit": "s⁻¹"},
      {"measurement": "Km", "setting": "[11]", "value": 5, "unit": "µM"},
      {"measurement": "kcat/Km", "setting": "[12]", "value": "1.5e+06", "unit": "M⁻¹ s⁻¹"},
      {"measurement": "kcat/Km", "setting": "[13]", "value": "3.7e+06", "unit": "M⁻¹ s⁻¹"},
      {"measurement": "kcat/Km", "setting": "[14]", "value": 300000, "unit": "M⁻¹ s⁻¹"},
      {"measurement": "kcat/Km", "setting": "[15]", "value": 200000, "unit": "M⁻¹ s⁻¹"},
      {"measurement": "kcat/Km", "setting": "[16]", "value": "5.3e+06", "unit": "M⁻¹ s⁻¹"}
    ]}
  ]
}
